Assay results as given in patent US10206975 (dated 2019).

Legend:
human complement C5 [1] = biological target: human complement C5 (human); test: competition, ECL
human serum albumin [2] = biological target: T1, human serum albumin (human, UniProt P02768); test: SPR
human complement C5 [3] = biological target: human complement C5 (human); test: SPR, without albumin
human complement C5 [4] = biological target: human complement C5 (human); test: SPR, with human albumin
human complement C5 [5] = biological target: human complement C5 (human); test: SPR
human complement C4 = biological target: T2, human complement C4 (human); test: SPR, 40 and 400 nM
T2 chain 1: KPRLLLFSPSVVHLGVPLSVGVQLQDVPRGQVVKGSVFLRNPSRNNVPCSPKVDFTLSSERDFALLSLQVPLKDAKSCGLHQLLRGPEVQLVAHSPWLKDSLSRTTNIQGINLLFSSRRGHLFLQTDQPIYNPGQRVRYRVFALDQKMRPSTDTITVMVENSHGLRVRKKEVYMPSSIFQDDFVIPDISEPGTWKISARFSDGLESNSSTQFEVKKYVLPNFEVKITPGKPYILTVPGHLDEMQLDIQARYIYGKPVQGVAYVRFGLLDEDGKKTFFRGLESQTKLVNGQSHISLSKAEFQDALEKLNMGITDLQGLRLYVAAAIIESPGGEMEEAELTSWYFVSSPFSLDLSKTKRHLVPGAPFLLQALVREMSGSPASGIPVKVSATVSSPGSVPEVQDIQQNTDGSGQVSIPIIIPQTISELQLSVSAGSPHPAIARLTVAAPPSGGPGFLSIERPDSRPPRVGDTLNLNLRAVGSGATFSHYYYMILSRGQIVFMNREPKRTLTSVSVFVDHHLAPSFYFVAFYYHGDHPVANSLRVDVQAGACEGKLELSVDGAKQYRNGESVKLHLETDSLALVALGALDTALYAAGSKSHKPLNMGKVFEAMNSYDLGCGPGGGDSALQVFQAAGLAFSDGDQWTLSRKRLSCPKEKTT
T2 chain 2: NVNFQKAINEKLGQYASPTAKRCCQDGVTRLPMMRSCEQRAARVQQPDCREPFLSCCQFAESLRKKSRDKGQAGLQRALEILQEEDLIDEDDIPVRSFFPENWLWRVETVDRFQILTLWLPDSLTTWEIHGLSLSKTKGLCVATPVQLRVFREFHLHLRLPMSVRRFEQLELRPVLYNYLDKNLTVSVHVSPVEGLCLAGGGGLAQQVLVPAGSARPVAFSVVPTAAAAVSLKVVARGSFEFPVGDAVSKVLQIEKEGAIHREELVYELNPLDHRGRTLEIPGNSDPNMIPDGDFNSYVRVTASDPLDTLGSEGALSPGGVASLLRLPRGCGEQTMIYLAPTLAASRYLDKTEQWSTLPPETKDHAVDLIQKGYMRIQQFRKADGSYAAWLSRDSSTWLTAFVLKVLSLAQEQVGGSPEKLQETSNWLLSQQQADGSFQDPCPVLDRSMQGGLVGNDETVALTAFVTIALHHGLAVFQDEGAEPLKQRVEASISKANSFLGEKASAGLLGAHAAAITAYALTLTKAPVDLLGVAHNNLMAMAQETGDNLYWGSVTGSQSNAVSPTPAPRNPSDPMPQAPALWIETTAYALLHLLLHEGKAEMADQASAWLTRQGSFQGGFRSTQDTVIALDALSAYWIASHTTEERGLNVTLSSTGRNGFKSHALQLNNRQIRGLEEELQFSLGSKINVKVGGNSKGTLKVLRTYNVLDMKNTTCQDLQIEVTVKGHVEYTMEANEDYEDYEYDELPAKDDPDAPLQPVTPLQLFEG
T2 chain 3: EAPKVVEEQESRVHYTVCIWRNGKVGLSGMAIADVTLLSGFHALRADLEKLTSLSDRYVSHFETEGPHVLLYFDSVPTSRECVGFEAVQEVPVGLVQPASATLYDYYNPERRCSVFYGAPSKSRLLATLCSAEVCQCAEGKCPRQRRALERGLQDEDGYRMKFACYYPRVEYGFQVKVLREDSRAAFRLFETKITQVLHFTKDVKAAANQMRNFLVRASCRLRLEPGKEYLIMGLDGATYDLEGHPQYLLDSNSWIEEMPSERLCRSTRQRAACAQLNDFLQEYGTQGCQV

human complement C3 = human complement C3 (human, UniProt P01024); test: SPR, 40 and 400 nM
mouse serum albumin = mouse serum albumin (mouse, UniProt P07724); test: SPR
mouse serum albumin, sequence (P07724 25-608): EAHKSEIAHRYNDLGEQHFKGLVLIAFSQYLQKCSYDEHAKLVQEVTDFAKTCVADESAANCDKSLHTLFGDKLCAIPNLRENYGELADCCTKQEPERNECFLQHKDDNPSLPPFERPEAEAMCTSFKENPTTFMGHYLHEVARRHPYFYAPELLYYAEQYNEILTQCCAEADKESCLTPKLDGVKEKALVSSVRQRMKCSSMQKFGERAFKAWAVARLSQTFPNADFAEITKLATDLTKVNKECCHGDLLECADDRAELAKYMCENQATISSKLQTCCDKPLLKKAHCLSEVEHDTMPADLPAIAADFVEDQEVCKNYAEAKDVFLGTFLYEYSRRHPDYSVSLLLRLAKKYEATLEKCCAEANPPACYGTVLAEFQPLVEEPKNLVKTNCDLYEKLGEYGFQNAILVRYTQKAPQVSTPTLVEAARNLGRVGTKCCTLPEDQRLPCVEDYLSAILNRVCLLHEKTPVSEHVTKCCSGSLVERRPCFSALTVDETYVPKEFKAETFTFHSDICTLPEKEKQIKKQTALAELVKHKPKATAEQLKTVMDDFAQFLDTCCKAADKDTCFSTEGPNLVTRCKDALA

rat serum albumin = biological target: T3, rat serum albumin (rat, UniProt P02770); test: SPR
T3 chain: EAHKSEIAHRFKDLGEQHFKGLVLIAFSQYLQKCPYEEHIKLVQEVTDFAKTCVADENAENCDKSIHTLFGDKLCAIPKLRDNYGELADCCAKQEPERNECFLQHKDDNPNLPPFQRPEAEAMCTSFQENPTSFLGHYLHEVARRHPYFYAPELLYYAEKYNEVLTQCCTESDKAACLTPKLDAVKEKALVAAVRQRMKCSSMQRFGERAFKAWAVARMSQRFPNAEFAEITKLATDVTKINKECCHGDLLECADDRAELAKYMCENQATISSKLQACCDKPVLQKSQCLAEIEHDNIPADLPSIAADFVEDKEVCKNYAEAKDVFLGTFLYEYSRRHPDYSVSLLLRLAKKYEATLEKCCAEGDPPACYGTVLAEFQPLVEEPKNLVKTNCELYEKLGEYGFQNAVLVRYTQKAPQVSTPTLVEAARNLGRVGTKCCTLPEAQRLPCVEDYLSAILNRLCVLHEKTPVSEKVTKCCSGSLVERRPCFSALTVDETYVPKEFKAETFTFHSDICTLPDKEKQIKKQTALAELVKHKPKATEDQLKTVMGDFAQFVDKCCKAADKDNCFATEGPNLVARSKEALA

human serum albumin [6] = biological target: T1, human serum albumin; test: SPR, 25C
bovine serum albumin = bovine serum albumin (bovine, UniProt P02769); test: SPR
bovine serum albumin, sequence (P02769 25-607): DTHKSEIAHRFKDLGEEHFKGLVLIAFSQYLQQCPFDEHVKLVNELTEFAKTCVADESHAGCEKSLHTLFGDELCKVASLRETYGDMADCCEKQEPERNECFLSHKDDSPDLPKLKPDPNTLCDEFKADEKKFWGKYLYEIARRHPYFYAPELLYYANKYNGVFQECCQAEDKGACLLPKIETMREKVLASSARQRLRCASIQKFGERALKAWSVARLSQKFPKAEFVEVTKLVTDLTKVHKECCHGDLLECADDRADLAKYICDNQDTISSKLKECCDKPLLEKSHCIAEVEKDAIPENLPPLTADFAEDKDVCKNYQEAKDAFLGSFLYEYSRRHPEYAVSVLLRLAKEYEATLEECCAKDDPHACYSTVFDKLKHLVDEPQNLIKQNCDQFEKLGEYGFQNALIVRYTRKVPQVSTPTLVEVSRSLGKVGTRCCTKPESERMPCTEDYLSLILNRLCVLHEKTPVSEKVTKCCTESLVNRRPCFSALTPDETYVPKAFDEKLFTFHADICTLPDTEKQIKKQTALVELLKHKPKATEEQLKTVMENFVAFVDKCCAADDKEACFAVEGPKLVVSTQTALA

human complement C5 [7] = biological target: human complement C5 (human); test: other, ECL saturation binding

B1: OmCI (protein)
chain: MDSESDCTGSEPVDAFQAFSEGKEAYVLVRSTDPKARDCLKGEPAGEKQDNTLPVMMTFKNGTDWASTDWTFTLDGAKVTATLGNLTQNREVVYDSQSHHCHVDKVEKEVPDYEMWMLDAGGLEVEVECCRQKLEELASGRNQMYPHLKDCGGGGSENLYFQGSHHHHHH
Binder B1 has an IC50 (human complement C5 [1]) of 1.5 nM.

B2: Z06175a-GS-ABD094-GS(G4S)2-Z06175a (designed binder)
chain 1: not shown
chain 2: LAEAKEAANAELDSYGVSDFYKRLIDKAKTVEGVEALKDAILAALP
chain 3: not shown
Work on B2 yielded a Kd (human serum albumin [2]) greater than 1 nM, a Kd (human complement C5 [3]) of 0.662 nM and a Kd (human complement C5 [4]) of 0.586 nM.

B3: Z06175a-Z06175a-GS(G4S)2-ABD094 (designed binder)
chain 1: not shown
chain 2: not shown
chain 3: LAEAKEAANAELDSYGVSDFYKRLIDKAKTVEGVEALKDAILAALP
Work on B3 yielded a Kd (human complement C5 [3]) of 1.38 nM and a Kd (human complement C5 [4]) of 1.13 nM.

B4: Z(757)-GS-ABD094 (designed binder)
chain 1: not shown
chain 2: LAEAKEAANAELDSYGVSDFYKRLIDKAKTVEGVEALKDAILAALP
In the case of B4, the Kd (human complement C5 [5]) is reported as 2.34 nM.

B5: Z05477a-GS-ABD094 (designed binder)
chain 1: not shown
chain 2: LAEAKEAANAELDSYGVSDFYKRLIDKAKTVEGVEALKDAILAALP
With B5 the IC50 (human complement C5 [1]) was roughly 30 nM.

B6: Z(749)-GS-ABD094 (designed binder)
chain 1: not shown
chain 2: LAEAKEAANAELDSYGVSDFYKRLIDKAKTVEGVEALKDAILAALP
B6 gave a Kd (human complement C5 [5]) of 1.83 nM.

B7: Z(752)-GS-ABD094 (designed binder)
chain 1: not shown
chain 2: LAEAKEAANAELDSYGVSDFYKRLIDKAKTVEGVEALKDAILAALP
With B7 the Kd (human complement C5 [5]) was 2.58 nM.

B8: Z(754)-GS-ABD094 (designed binder)
chain 1: not shown
chain 2: LAEAKEAANAELDSYGVSDFYKRLIDKAKTVEGVEALKDAILAALP
Binder B8 has a Kd (human complement C5 [5]) of 2.28 nM.

B9: Z(750)-GS-ABD094 (designed binder)
chain 1: not shown
chain 2: LAEAKEAANAELDSYGVSDFYKRLIDKAKTVEGVEALKDAILAALP
Work on B9 yielded a Kd (human complement C5 [5]) of 1.75 nM.

B10: Z(756)-GS-ABD094 (designed binder)
chain 1: not shown
chain 2: LAEAKEAANAELDSYGVSDFYKRLIDKAKTVEGVEALKDAILAALP
For B10, the Kd (human complement C5 [5]) was 2.01 nM.

B11: Z06175a-GS(G4S)2-ABD094 (designed binder)
chain 1: not shown
chain 2: LAEAKEAANAELDSYGVSDFYKRLIDKAKTVEGVEALKDAILAALP
B11 was tested, and the Kd (human complement C5 [3]) was 3.75 nM.

B12: Z(748)-GS-ABD094 (Z06009a) (designed binder)
chain 1: not shown
chain 2: LAEAKEAANAELDSYGVSDFYKRLIDKAKTVEGVEALKDAILAALP
For B12, the Kd (human complement C5 [5]) was 1.31 nM, the binding result (human complement C4) was “no binding” and the binding result (human complement C3) was “no binding”.

B13: Z06175a-GS-ABD094 (designed binder)
chain 1: not shown
chain 2: LAEAKEAANAELDSYGVSDFYKRLIDKAKTVEGVEALKDAILAALP
B13 was tested, and the Kd (mouse serum albumin) was roughly 4 nM, the Kd (rat serum albumin) was less than 0.1 nM and the Kd (human complement C5 [5]) was 1.18 nM. For the same binder, the Kd (human complement C5 [3]) was 1.43 nM, the Kd (human complement C5 [4]) was 1.43 nM and the Kd (human serum albumin [6]) was less than 1 nM. B13: no binding (bovine serum albumin).

B14: SULFO-TAG Z(748)-GS-ABD094 (designed binder)
chain 1: not shown
chain 2: LAEAKEAANAELDSYGVSDFYKRLIDKAKTVEGVEALKDAILAALP
B14 was tested, and the Kd (human complement C5 [7]) was 0.9 nM.

B15: Z06175a-Z06175a-GS-ABD094 (designed binder)
chain 1: not shown
chain 2: not shown
chain 3: LAEAKEAANAELDSYGVSDFYKRLIDKAKTVEGVEALKDAILAALP
Work on B15 yielded a Kd (human complement C5 [3]) of 0.63 nM and a Kd (human complement C5 [4]) of 0.776 nM.

B16: Z(751)-GS-ABD094 (designed binder)
chain 1: not shown
chain 2: LAEAKEAANAELDSYGVSDFYKRLIDKAKTVEGVEALKDAILAALP
For B16, the Kd (human complement C5 [5]) was 1.87 nM.

B17: Z(755)-GS-ABD094 (designed binder)
chain 1: not shown
chain 2: LAEAKEAANAELDSYGVSDFYKRLIDKAKTVEGVEALKDAILAALP
B17 showed a Kd (human complement C5 [5]) of 3.05 nM.

B18: ABD094-Z06175a (N-terminal ABD) (designed binder)
chain 1: LAEAKEAANAELDSYGVSDFYKRLIDKAKTVEGVEALKDAILAALP
chain 2: not shown
B18 was tested, and the IC50 (human complement C5 [1]) was 17 nM.
